From publication PMC7899375 (PLoS ONE, 2021)

Target: WI/05 HA1 monomer (Influenza A virus …, UniProt Q0PED2, strain)
Assay: ELISA
Details: both partners purified

B1: mAb #1664 (antibody, V domains shown)
VH: EVQVMQSGAEARMTGATVKISCKASGYTFSDYFLHWVKQAPGKGLEWMGLVDVDNGEVRYAEKFQGRVTITADTSTETAYLEMTTVTSGDTAVYYCASTTPRGGNPSVYNYFFVDVWGKGTTVTVSS
VL: QPVLTQSSSASASLGSSVKLTCTLSSGHDNYIIAWHQQQPGKAPRYLMQVGAGGTYNKGSGVPHRFSGSSSGADRYLTISNLQSDDEADYYCETWDSKTVFGGGTTLTVL
notes: also called private mAb; H3-specific mAb; source: HEK 293F cells, transfected (GenScript), conditioned media; purified
B1: no binding (tested: 20 μg/mL).
